Measurements taken from US20220073643A1 (NANJING GENSCRIPT BIOTECH, published 2022).
Where a chain is given by its changes, count along the chain named. Where two headings read alike, the source gives them in different places. One block for each binder: values may come before it.

What was measured:
[1] = target: human Claudin18.2 (human); experiment: cell-based or functional assay
[2] = target: human Claudin18.2 (human); experiment: cell-based or functional assay; remark: listed apart in the source
[3] = target: T1, human Claudin18.2 (human); experiment: FACS, Claudin18.2-HEK293 cells
T1 construct: also called CLDN18.2
Method: (§1) The binding of chimeric antibodies to Claudin18.2 expressed on HEK293 cells was determine by FACS analysis. Briefly, HEK293 cells expressing human Claudin18.2 as prepared in the foregoing Example were harvested and incubated with anti-Claudin18.2 mAbs at 4° C. for 40 min, followed by fluorophore (iFluor 647)-labeled goat […] IgG (H+L) secondary antibodies at 4° C. for 0.5 hour. The samples were then analyzed by flow cytometry.

[4] = target: T1, human Claudin18.2; experiment: FACS, Claudin18.2-HEK293 cells; remark: listed apart in the source
Method: as §1

[5] = target: T1, human Claudin18.2; experiment: FACS, Claudin18.2-HEK293 cells; remark: listed apart in the source
Method: as §1
After initial screening of cell binding with transfected supernatants, the binding pattern of chimeric and up to 3 humanized antibodies on Claudin18.2 expressed on HEK293 cells were plotted with antibody in 3× serial dilutions, starting concentration of 45 μg/ml, following the protocol described in Example 3.

B1: chimeric 393C2C5 (antibody, human IgG1, kappa, V domains shown)
VH: DVQLVESGGGLVQPGGSRKLSCAASGFTFSSFGMHWVRQAPEKGLEWVAYISSGSSPIYYADTVKGRFTISRDNPKNTLFLQMTSLRSEDTAMYFCATFYYGNSFAYWGQGTLVTVSA
VL: DIVMTQSPSSLTVTAGEKVTMSCKSSQTLLNSGNQKNYLTWYQQKSGQPPKLLIYWASTRESGVPDRFTGSGSGTDFTLTISSVQAEDLAVYYCQNAYSYPVTFGSGTKVELKR
notes: chimeric, human IgG1/kappa constant regions; also called 393C2C5A
CDC % Relative activity [1]: 2030% | CDC EC50 [1]: 0.105 µg/mL | ADCC % Relative activity [2]: 318% | ADCC EC50 [2]: 0.0111 µg/mL | EC50 [3]: 0.687 nM

B2: chimeric 418D2F9 (antibody, human IgG1, kappa, V domains shown)
VH: B1 VH with S52N, S53T, P57T, F95Y, T98R, F99I, A106V
VL: B1 VL with T28S, S46P, A97D, V102L, S106A, V110L
notes: chimeric, human IgG1/kappa constant regions
CDC % Relative activity [1]: 3.04% | CDC EC50 [1]: 69.9 µg/mL | ADCC % Relative activity [2]: 25.7% | ADCC EC50 [2]: 0.103 µg/mL | EC50 [3]: 0.65 nM

B4: chimeric 370E2B12C3 (antibody, human IgG1, kappa, V domains shown)
VH: QVQLKESGPGLVAPSQSLSITCTVSGFSLTTYGVHWVRQPPGKGLEWLGVIWAGGSTNYNSALMSRVSINKDNSKSQVFIKMNSLQADDTALYYCARAAYYGNGLDYWGQGTTLTVSS
VL: B1 VL with S46P, R60G, Y93F, S99F, V102F, S106G, V110L, L112I
notes: chimeric, human IgG1/kappa constant regions; also called 370E2B12C3-chimeric
CDC % Relative activity [1]: 1200% | CDC EC50 [1]: 0.192 µg/mL | ADCC % Relative activity [2]: 75.7% | ADCC EC50 [2]: 0.0335 µg/mL | EC50 [4]: 0.792 nM | EC50 [5]: 0.772 µg/mL | Span [5]: 4570

B5: chimeric 412B6E4 (antibody, human IgG1, kappa, V domains shown)
VH: B1 VH with M34V, P57T, D62H, T63S, R87G, M93T, F95Y, T98R
VL: B1 VL with T28S, S46P, L52M, S99T, V102L, S106A, K109R, V110L
notes: chimeric, human IgG1/kappa constant regions; also called 412B6E4-Chimeric
CDC % Relative activity [1]: 2020% | CDC EC50 [1]: 0.105 µg/mL | ADCC % Relative activity [2]: 535% | ADCC EC50 [2]: 0.00494 µg/mL | EC50 [3]: 0.677 nM | EC50 [5]: 0.555 µg/mL | Span [5]: 87900

B9: chimeric 252E7C9 (antibody, human IgG1, kappa, V domains shown)
VH: QTYLQQSGAELVRSGASVKMSCRTSGYSFTSHNMHWVKQTPGQGLEWIGYIYPGNGGSYYNQKFKGKAILTADTSSSTAYMQISSLTSEDSAVYFCTRDYYGNSFVYWGQGTLVTVSA
VL: DVVMTQSPSSLTEKTGEKVSMSCKSSQSLLNSGNQKNYLTWYQQKPGQPPKLLIYWASTRESGVPDRFTGSGSGTDFTLTISSLQTEDLAIYYCQNNFRYPFTFGAGTKLELKR
notes: as for B2
CDC % Relative activity [1]: 991% | CDC EC50 [1]: 0.272 µg/mL | ADCC % Relative activity [2]: 98.7% | ADCC EC50 [2]: 0.0311 µg/mL | EC50 [4]: 0.331 nM

Next, values leading:

CDC % Relative activity [1]: 985% | CDC EC50 [1]: 0.274 µg/mL | ADCC % Relative activity [2]: 157% | ADCC EC50 [2]: 0.023 µg/mL | EC50 [4]: 1.24 nM | EC50 [5]: 0.192 µg/mL | Span [5]: 12400
B3: chimeric 246B5F2 (antibody, human IgG1, kappa, V domains shown)
VH: EVMLVESGGGLMKPGGSLKLSCAASEFTFSNYAMSWVRQTPEKRLEWVATISSGRSSTYYPDSVKGRFTISRDNAKNTLYLQMSSLRSEDTAMYYCAGLGRGNAMEYWGQGTSVTVSS
VL: B1 VL with M21L, T28S, S46P, T78I, S82N, V102F, V110L, L112I
notes: chimeric, human IgG1/kappa constant regions; also called 246B5F2-Chimeric

CDC % Relative activity [1]: 854% | CDC EC50 [1]: 0.269 µg/mL | ADCC % Relative activity [2]: 92.1% | ADCC EC50 [2]: 0.0275 µg/mL | EC50 [4]: 1.01 nM
B6: chimeric 273C10E5 (antibody, human IgG1, kappa, V domains shown)
VH: QVQLQQSGAELVKPGASVKLSCKASGYTFTSFGINWLRQRPEQGLEWIGWIFPGDGNSKYNENFKGKATLTTDKSSSTAYMQVTRLTSEDSAVYFCARFYYGNSFANWGQGTLVTVSA
VL: B1 VL with T28S, S46P, S58A, T69A, A97D, S99F, V102F, S106A, V110L
notes: as for B2

CDC % Relative activity [1]: 2430% | CDC EC50 [1]: 0.0874 µg/mL | ADCC % Relative activity [2]: 144% | ADCC EC50 [2]: 0.0184 µg/mL | EC50 [3]: 0.908 nM
B7: chimeric 429H6C5 (antibody, human IgG1, kappa, V domains shown)
VH: B1 VH with G44E, P57T, D62H, Q82R, R87G, F95Y, A97V, T98R, A106V, Y107N
VL: B1 VL with V13A, T28S, S46P, L52M, T69A, S99I, V102L, S106A, K109R, V110L
notes: as for B2

EC50 [3]: 2.48 nM
B8: chimeric 417A6F11 (antibody, human IgG1, kappa, V domains shown)
VH: EVQLQQSGPELVKPGASMKISCKASGYSFTGYTMNWVKQSHGKNLEWIGLINPYNGGTSYNQKFKGKATLTVDKSSSTAYMELLSLTSEDSAVYYCARGDYWGQGTTLTVSS
VL: DIVMTQSPSSLTVTAGEKVTMSCKSSQSLLNSGNQKNYLTWYQQKPGQPPKLLIYWASTRESGVPDRFTGSGSGTDFTLTISSVQAEDLAVYYCQNDYSYPTFGAGTKLELKR
notes: as for B2

CDC % Relative activity [1]: 2130% | CDC EC50 [1]: 0.0994 µg/mL | ADCC % Relative activity [2]: 452% | ADCC EC50 [2]: 0.00782 µg/mL | EC50 [4]: 1.05 nM | EC50 [5]: 0.317 µg/mL | Span [5]: 69700
B10: chimeric 232C5E3 (antibody, human IgG1, kappa, V domains shown)
VH: QAYLQQSGAELVRSGASVKMSCKASGYTFTSHNIHWIKQTPGKGLEWIGYIYPGNGGTNYNQKFKAKATLTADTSSSTAYMQISSLTSEDSAVYFCARDYYGNSFAYWGQGTLVTVSA
VL: DIMMTQSPSSLTETAGEKVSMSCKSSQSLLNSGNQKNYLTWYQQKPGQPPKLLIYWASTRESGVPDRFSGSGSGTDFTLTISSVQAEDLAVYYCQNGYRFPFTFGAGTKLELKR
notes: chimeric, human IgG1/kappa constant regions; also called 232C5E3-Chimeric
